Assay results from paper PMC7959842 (2021).

Molecular target: C3b (UniProt P01024 749-1663; P01024 749-1663, biotin (EZ-Link Maleimide-PEG2-Biotin, after 1 mM DTT) where immobilised on streptavidin chips; none where amine-coupled)
Assay: SPR; biotin-coupled C3b

Chain of C3b (P01024 23-667, chain 1 of 2): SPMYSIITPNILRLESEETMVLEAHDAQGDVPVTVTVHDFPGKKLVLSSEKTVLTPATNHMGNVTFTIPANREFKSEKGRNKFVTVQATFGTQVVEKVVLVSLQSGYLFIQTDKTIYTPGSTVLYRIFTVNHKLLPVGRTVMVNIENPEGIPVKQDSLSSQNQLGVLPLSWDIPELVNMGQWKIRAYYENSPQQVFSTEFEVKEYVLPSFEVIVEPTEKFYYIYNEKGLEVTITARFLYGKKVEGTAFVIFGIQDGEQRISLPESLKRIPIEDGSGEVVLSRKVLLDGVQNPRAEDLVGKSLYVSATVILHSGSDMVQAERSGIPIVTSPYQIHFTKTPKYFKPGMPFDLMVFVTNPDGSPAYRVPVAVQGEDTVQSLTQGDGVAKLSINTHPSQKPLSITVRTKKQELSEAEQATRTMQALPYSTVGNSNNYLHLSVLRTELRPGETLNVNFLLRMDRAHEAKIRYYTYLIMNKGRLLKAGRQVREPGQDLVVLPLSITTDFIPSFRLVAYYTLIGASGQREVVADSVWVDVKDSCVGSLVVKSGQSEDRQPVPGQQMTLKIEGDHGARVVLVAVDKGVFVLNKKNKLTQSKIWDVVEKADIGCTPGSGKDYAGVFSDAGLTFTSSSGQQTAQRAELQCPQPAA
Chain of C3b (P01024 749-1663, chain 2 of 2): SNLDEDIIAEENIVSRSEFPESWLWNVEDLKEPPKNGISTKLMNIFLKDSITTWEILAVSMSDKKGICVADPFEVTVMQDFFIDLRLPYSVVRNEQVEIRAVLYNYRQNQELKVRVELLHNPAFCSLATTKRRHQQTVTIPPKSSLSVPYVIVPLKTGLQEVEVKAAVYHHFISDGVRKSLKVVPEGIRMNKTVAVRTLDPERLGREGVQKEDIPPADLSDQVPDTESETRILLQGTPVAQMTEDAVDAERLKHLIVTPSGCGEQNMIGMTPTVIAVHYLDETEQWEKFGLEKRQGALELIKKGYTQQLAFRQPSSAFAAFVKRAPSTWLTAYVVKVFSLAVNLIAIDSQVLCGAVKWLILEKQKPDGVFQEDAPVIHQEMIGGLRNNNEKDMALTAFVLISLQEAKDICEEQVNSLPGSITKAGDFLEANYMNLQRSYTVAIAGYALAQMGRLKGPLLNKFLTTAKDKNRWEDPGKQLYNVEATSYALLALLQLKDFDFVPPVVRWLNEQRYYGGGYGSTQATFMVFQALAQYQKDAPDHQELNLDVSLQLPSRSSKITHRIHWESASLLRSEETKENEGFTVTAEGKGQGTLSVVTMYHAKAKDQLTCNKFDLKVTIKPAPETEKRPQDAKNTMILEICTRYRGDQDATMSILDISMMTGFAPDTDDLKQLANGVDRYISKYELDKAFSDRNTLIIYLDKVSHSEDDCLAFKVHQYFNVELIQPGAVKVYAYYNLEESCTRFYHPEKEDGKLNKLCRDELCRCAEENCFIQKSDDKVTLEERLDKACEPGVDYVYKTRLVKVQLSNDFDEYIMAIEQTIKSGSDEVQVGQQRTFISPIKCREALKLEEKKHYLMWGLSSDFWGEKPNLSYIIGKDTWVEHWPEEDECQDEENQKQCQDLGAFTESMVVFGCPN

| Binder | Kd [µM] |
| --- | --- |
| FH18-20 (domain or fragment) TSCVNPPTVQNAYIVSRQMSKYPSGERVRYQCRSPYEMFGDEEVMCLNGNWTEPPQCKDSTGKCGPPPPIDNGDITSFPLSVYAPASSVEYQCQNLYQLEGNKRITCRNGQWSEPPKCLHPCVISREIMENYNIALRWTAKQKLYSRTGESVEFVCKRGYRLSSRSHTLRTTCWDGKLEYPTCAKR | 9.9 |
| FH18-20(LV) (domain or fragment) TSCVNPPTVQNAYIVSRQMSKYPSGERVRYQCRSPYEMFGDEEVMCLNGNWTEPPQCKDSTGKCGPPPPIDNGDITSFPLSVYAPASSVEYQCQNLYQLEGNKRITCRNGQWSEPPKCLHPCVISREIMENYNIALRWTAKQKLYLRTGESVEFVCKRGYRLSSRSHTLRTTCWDGKLEYPTCAKR | 5.6 |
| FH18-20(LA) (domain or fragment) TSCVNPPTVQNAYIVSRQMSKYPSGERVRYQCRSPYEMFGDEEVMCLNGNWTEPPQCKDSTGKCGPPPPIDNGDITSFPLSVYAPASSVEYQCQNLYQLEGNKRITCRNGQWSEPPKCLHPCVISREIMENYNIALRWTAKQKLYLRTGESAEFVCKRGYRLSSRSHTLRTTCWDGKLEYPTCAKR | 5.8 |

Other lines, results leading:

| Kd [µM] | Binder |
| --- | --- |
| 10 | FH18-20(SA) (domain or fragment) TSCVNPPTVQNAYIVSRQMSKYPSGERVRYQCRSPYEMFGDEEVMCLNGNWTEPPQCKDSTGKCGPPPPIDNGDITSFPLSVYAPASSVEYQCQNLYQLEGNKRITCRNGQWSEPPKCLHPCVISREIMENYNIALRWTAKQKLYSRTGESAEFVCKRGYRLSSRSHTLRTTCWDGKLEYPTCAKR |
| 0.6 | FHR-1 (factor H-related protein 1, FHR-1*B, wild-type) (natural protein) EATFCDFPKINHGILYDEEKYKPFSQVPTGEVFYYSCEYNFVSPSKSFWTRITCTEEGWSPTPKCLRLCFFPFVENGHSESSGQTHLEGDTVQIICNTGYRLQNNENNISCVERGWSTPPKCRSTDTSCVNPPTVQNAYIVSRQMSKYPSGERVRYQCRSPYEMFGDEEVMCLNGNWTEPPQCKDSTGKCGPPPPIDNGDITSFPLSVYAPASSVEYQCQNLYQLEGNKRITCRNGQWSEPPKCLHPCVISREIMENYNIALRWTAKQKLYLRTGESAEFVCKRGYRLSSRSHTLRTTCWDGKLEYPTCAKR |
